In publication PMC3605307 (2013):

How the values were obtained:
Assay in all cases: SPR
[1] = target: Human TRAIL-R2-Fc D109A together with E78A (human, UniProt O14763 58-184, E78A | D109A)
[2] = target: Human TRAIL-R2-Fc triple mutation V167A-W173A-V179A (human, UniProt O14763 58-184, V167A | W173A | V179A)
Human TRAIL-R2-Fc V167A = Human TRAIL-R2-Fc V167A (human, UniProt O14763 58-184, V167A)
Human TRAIL-R2-Fc F112A = Human TRAIL-R2-Fc F112A (human, UniProt O14763 58-184, F112A)
Chain of Human TRAIL-R2-Fc F112A (O14763 58-184 F112A): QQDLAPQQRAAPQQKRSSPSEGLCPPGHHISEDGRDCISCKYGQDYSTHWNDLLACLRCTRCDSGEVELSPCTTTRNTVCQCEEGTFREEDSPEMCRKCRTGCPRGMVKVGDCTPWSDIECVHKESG

Chain of Human TRAIL-R2-Fc D109A together with E78A (O14763 58-184 E78A/D109A): as the sequence (O14763 58-184 F112A) above, with E21A, D52A, A55F counted along it
Chain of Human TRAIL-R2-Fc triple mutation V167A-W173A-V179A (O14763 58-184 V167A/W173A/V179A): as the sequence (O14763 58-184 F112A) above, with A55F, V110A, W116A, V122A counted along it
Chain of Human TRAIL-R2-Fc V167A (O14763 58-184 V167A): as the sequence (O14763 58-184 F112A) above, with A55F, V110A counted along it

Row | Binder | Kd [1] [nM] | Kd [2] [nM] | Kd (Human TRAIL-R2-Fc V167A) [nM] | Kd (Human TRAIL-R2-Fc F112A) [nM]
1 | TRAIL (TNF-related apoptosis inducing ligand) ectodomain (ligand) TNELKQMQDKYSKSGIACFLKEDDSYWDPNDEESMNSPCWQVKWQLRQLVRKMILRTSEETISTVQEKQQNISPLVRERGPQRVAAHITGTRGRSNTLSSPNSKNEKALGRKINSWESSRSGHSFLSNLHLRNGELVIHEKGFYYIYSQTYFRFQEEIKENTKNDKQMVQYIYKYTSYPDPILLMKSARNSCWSKDAEYGLYSIYQGGIFELKENDRIFVSVTNEHLIDMDHEASFFGAFLVG | 4 | 4 | 4 | 4
2 | Recombinant UL141 ectodomain (soluble, released from the Fc fusion) (domain or fragment) SFPFATADIAEKMWAENYETTSPAPVLVAEGEQVTIPCTVMTHSWPMVSIRARFCRSHDGSDELILDAVKGHRLMNGLQYRLPYATWNFSQLHLGQIFSLTFNVSTDTAGMYECVLRNYSHGLIMQRFVILTQLETLSRPDEPCCTPALGRYSLGDQIWSPTPWRLRNHDCGMYRGFQRNYFYIGRADAEDCWKPACPDEEPDRCWTVIQRYRLPGDCYRSQPHPPKFLPVTPAPPADIDTGMSPWATRG | 60 | – | – | –
